This passage reports stoichiometry N results from paper PMC10682670.

In test [1] the target is CMP-Ang1 fusion protein (encoded by mRNA-59) (human). In words: non-reducing PAGE with immunoblot; concentrated serum-free supernatant of mRNA-transfected HeLa cells, non-reducing PAGE, Western blot with Ang1-specific antibody. (In general: In western blotting, separated proteins are transferred to a membrane and probed.)
In test [2] the target is COMP-Ang1 fusion protein (encoded by mRNA-76), secreted by HeLa cells (not stated ('humanized' fusion protein) | human). The description is as above.

A word on the stoichiometry N: it is a count of units in the complex or per binding partner.

“CMP-Ang1 fusion protein (encoded by mRNA-59) (ligand)”: the stoichiometry N in test [1] is 2.
With “COMP-Ang1 fusion protein (encoded by mRNA-76), secreted by HeLa cells (ligand)”, in test [2], the stoichiometry N came to 5.
